PMC10057298, “Kinetic Characterization and Catalytic Mechanism of N-Acetylornithine Aminotransferase Encoded by slr1022 Gene from Synechocystis sp. PCC6803” (International Journal of Molecular Sciences, 2023)
Residue numbers refer to the chain shown, from its start. Names and notes keep the numbering of the source.

B1: recombinant Slr1022 protein (N-acetylornithine aminotransferase encoded by slr1022 gene from Synechocystis sp. PCC6803) (enzyme, UniProt P73133 1-429, looked up)
chain: MTYSPVVESVEAQAFAVTDLSPAAEFKTADFDTYVMNTYGRFPIAIARGQGSTLWDTEGKSYLDFVAGIATCTLGHAHPALVRAVSDQIQKLHHVSNLYYIPEQGELAKWIVEHSCADRVFFCNSGAEANEAAIKLVRKYAHTVLDFLEQPVILTAKASFHGRTLATITATGQPKYQQYFDPLVPGFDYVPYNDIRSLENKVADLDEGNSRVAAIFLEPLQGEGGVRPGDLAYFKRVREICDQNDILLVFDEVQVGVGRTGKLWGYEHLGVEPDIFTSAKGLAGGVPIGAMMCKKFCDVFEPGNHASTFGGNPLACAAGLAVLKTIEGDRLLDNVQARGEQLRSGLAEIKNQYPTLFTEVRGWGLINGLEISAESSLTSVEIVKAAMEQGLLLAPAGPKVLRFVPPLVVTEAEIAQAVEILRQAIATLV
notes: N-acetylornithine aminotransferase (AcOAT) encoded by the slr1022 (argD) gene of Synechocystis sp; PCC6803; monomer printed as 49 kDa; The purified protein carries the cofactor PLP as internal aldimine (absorption at 410 nm); also called AcOAT; wild-type Slr1022; source: E. coli BL21 (DE3), pET28a-slr1022, purified (Ni-NTA)
B2: Slr1022 (Synechocystis sp. PCC 6803 substr. Kazusa; E223S) (protein)
chain: B1 chain with E223S
B3: Slr1022 (Synechocystis sp. PCC 6803 substr. Kazusa; E223A) (protein)
chain: B1 chain with E223A
B4: Slr1022 (Synechocystis sp. PCC 6803 substr. Kazusa; Y39F) (protein)
chain: B1 chain with Y39F
B5: Slr1022 (Synechocystis sp. PCC 6803 substr. Kazusa; T308A) (protein)
chain: B1 chain with T308A
B6: Slr1022 (Synechocystis sp. PCC 6803 substr. Kazusa; Q254A) (protein)
chain: B1 chain with Q254A
B7: Slr1022 (Synechocystis sp. PCC 6803 substr. Kazusa; S125A) (protein)
chain: B1 chain with S125A
B8: Slr1022 (Synechocystis sp. PCC 6803 substr. Kazusa; A127S) (protein)
chain: B1 chain with A127S
B9: Slr1022 (Synechocystis sp. PCC 6803 substr. Kazusa; D251E) (protein)
chain: B1 chain with D251E

What was measured:
Slr1022 = target: T1, Slr1022 (Synechocystis sp. PCC 6803, UniProt P73133); assay: UV-visible absorption at […] nm (internal aldimine); assay type: binding; conditions: 100 mmol/L Tris-HCl pH 8.5; covalent (Schiff base)
T1 construct: gene argD
T1 sequence (P73133 1-429): B1 chain

purified protein [1] = substrate: NCCCC(=O)O; assay: purified protein; conditions: 0.5 mmol/L α-KG, 0.05 mmol/L PLP, 2 mmol/L Mg2+, 2 mmol/L NADP+, 100 mmol/L Tris-HCl pH 8.5, 25 °C, apparent
purified protein [2] = substrate: NCCC[C@H](N)C(=O)O; assay: purified protein; conditions: 0.5 mmol/L α-KG, 0.1 mmol/L PLP, 6 mmol/L NAD+, 100 mmol/L Tris-HCl pH 8.5, 25 °C, apparent
purified protein [3] = substrate: O=C(O)CCC(=O)C(=O)O; assay: purified protein; assay type: biochemical, Synechocystis sp. PCC 6803; conditions: 100 mmol/L Orn as amino donor, 0.1 mmol/L PLP, 6 mmol/L NAD+, 100 mmol/L Tris-HCl pH 8.5, 25 °C, apparent
[4] = target: the molecule itself; assay: SEC; FPLC, Bio-Rad NGC system, ENrich SEC 650 gel filtration column, mobile phase standard PBS without exogenous PLP; mass calibrated with myoglobin, ovalbumin, bovine serum albumin and gamma-globulin
purified protein [5] = substrate: CC(=O)N[C@@H](CCCN)C(=O)O; assay: purified protein; assay type: biochemical, Synechocystis sp. PCC 6803; conditions: saturating α-KG, 0.1 mmol/L PLP, 6 mmol/L NAD+, 100 mmol/L Tris-HCl pH 8.5, 25 °C, apparent

Molecule | Km (purified protein [5]) [mmol/L] | kcat (purified protein [5]) [s⁻¹] | further results
Cc1ncc(COP(=O)(O)O)c(C=O)c1O [PLP] | – | – | UV-visible absorption at 410 nm (internal aldimine) (Slr1022): indicating that the cofactor PLP was bound to Slr1022 in the form of internal aldimine
B1 | – | – | Km (purified protein [1]): 78.1 ± 18.7 mmol/L; kcat (purified protein [1]): 0.14 s⁻¹; kcat/Km (purified protein [1]): 1.8 M⁻¹ s⁻¹; Km (purified protein [2]): 20.9 ± 3.5 mmol/L; kcat (purified protein [2]): 0.16 s⁻¹; kcat/Km (purified protein [2]): 7.7 M⁻¹ s⁻¹; Km (purified protein [3]): 0.13 ± 0.03 mmol/L; kcat (purified protein [3]): 0.11 ± 0.01 s⁻¹; kcat/Km (purified protein [3]): 846 M⁻¹ s⁻¹; stoichiometry N [4]: 2
B2 | 8.81 ± 2.96 | 3.67 ± 0.43 | –
B3 | 7.77 ± 1.76 | 1.17 ± 0.09 | –
B4 | 0.47 ± 0.05 | 0.17 ± 0.01 | –
B5 | 0.14 ± 0.02 | 0.007 ± 0.002 | –
B6 | 0.11 ± 0.01 | 0.02 ± 0.0005 | –
B7 | 0.23 ± 0.02 | 0.32 ± 0.01 | –
B8 | 0.59 ± 0.12 | 0.21 ± 0.01 | –
B9 | 1.39 ± 0.22 | 0.47 ± 0.03 | –
